# Positions of bridges follow the written chain, without caps; N, C: chain ends. Non-standard residues stand in square brackets, D forms with d. Residues, ends and D or L forms follow the SMILES beside them. Primed or numbered codes have the meaning given here. *: point of attachment. Cypate = CC1(C)C(/C=C/C=C/C=C/C=C2/N(CCC(=O)*)c3ccc4ccccc4c3C2(C)C)=[N+](CCC(=O)O)c2ccc3ccccc3c21; Cypate′ = not defined here
# How the values were obtained:
# [1] = system: 4T1 luc; assay: in vivo tumor targeting / fluorescence imaging of probes compared with LS301; parameters: species or system Balb/c; conditions: Tyr adjacent to the cypate
# Experimental: FIG. 5 depicts images showing LS838 for fluorescence and nuclear (PET and or SPECT) imaging. 4T1 luc in Balb/c; 100 μl of 50 μM LS838.
# FIG. 6 depicts the distribution of LS838 in tissue at 24 hours.
# A variety of probes which have similar sequence compared to LS301 were designed and prepared (Table 1). The probes have different peptide sequences, D-, L-amino acid variations or different groups on C-terminus. The sequences of the probes were tested by LC-MS and the spectroscopy properties were recorded. The performances of the tumor targeting abilities were also tested in vivo. […] It was unexpected that LS838 would be brighter relative to LS301 and it is unknown to us why it does. However, the enhanced brightness allows the use of smaller amounts of material to achieve the same uptake kinetics and accumulation as LS301. FIG. 5 depicts the accumulation of LS838 in vivo and FIG. 6 graphically quantifies the intensity of LS838 in various organs. […] LS838 labeled can be labeled with radionuclides such as radio-iodine, bromine, or fluorine for combined optical and nuclear imaging.
# [2] = system: PDAC; assay: in vivo uptake/contrast in PDAC relative to uninvolved pancreas
# Source text: A similar trend is observed in vivo, where preferential uptake in PDAC relative to uninvolved pancreas is […]. […] Permutation of the arginine-aspartic acid sequence results in a loss of PDAC-selective uptake. It has been shown that cypate binds to the hydrophobic pockets of albumin, irrespective of the source (human, murine, or bovine). […] Thus, the primary goal of this study is to determine the role of the peptide in tumor cell internalization or retention. Based on preliminary data, this question can be addressed by preparing the following cypate-labeled peptides (underlined amino acids are changes made to LS838): […]
# [3] = target: T1, albumin (Homo sapiens, UniProt P02768); conditions: carbocyanine dyes, previous study; cited from earlier work
# T1 sequence (P02768 25-609, species assumed): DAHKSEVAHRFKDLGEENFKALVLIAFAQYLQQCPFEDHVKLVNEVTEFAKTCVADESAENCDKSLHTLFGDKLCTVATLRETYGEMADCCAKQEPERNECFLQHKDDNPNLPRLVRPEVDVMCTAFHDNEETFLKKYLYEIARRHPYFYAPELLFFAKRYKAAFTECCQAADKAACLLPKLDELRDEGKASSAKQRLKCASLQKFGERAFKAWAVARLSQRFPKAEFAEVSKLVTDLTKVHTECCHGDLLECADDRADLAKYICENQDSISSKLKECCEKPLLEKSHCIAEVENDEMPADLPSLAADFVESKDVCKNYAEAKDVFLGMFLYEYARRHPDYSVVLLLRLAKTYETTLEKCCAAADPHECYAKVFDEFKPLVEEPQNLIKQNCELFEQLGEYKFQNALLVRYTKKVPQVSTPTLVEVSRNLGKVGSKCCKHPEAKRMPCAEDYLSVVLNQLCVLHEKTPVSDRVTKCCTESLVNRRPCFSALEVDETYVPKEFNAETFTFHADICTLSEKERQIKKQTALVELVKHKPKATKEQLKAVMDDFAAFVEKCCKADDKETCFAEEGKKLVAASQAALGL
# [4] = system: tumor cells; assay: NIR fluorescence microscopy of uptake and trafficking in cells; assay type: cell-based; conditions: dye alone
# Experimental: FIG. 8A and FIG. 8B depict uptake of LS838 in 4T1 luc cells showing internalization of the probe in the cells at 1 h (FIG. 8A) and 4 h (FIG. 8B) post incubation. Most cells show localization in the lysosomes at early time points, but the punctate fluorescence became more diffuse at 24 h, indicating translocation to the cytosol. Uptake in the mitochondria was negligible. Color scheme: cyan, Mitotracker; green, lysotracker; and red, LS838. (FIG. 8C) Internalization of LS838 in cells was inhibited by Filipinin, an inhibitor of albumin endocytosis via the gp60 pathway. A similar inhibition was observed when Alexa-680 dye labeled albumin (BSA; blue) was mixed with LS838.
# At early time points, LS838 is largely in the lysosomes, but it translocates to the cytosol in a time-dependent manner. […]
# Aggresomes are microtubule-catalyzed aggregates of […] that are used to degrade particularly stable and aggregated proteins. […] It will be evaluated if tumors have a lower ability to form aggresomes because of microtubule dysfunction, leading to prolonged retention in tumor cells compared to normal cells. If LS838 induces aggresome formation in tumor cells, but not fibroblasts will first be determined. […] It will also be determined if aggresomes form in vivo using a literature method. […] Aggresome formation will be determined by staining muscle, skin, and tumors for anti-ubiquitin protein. […]
# [5] = in vivo
# Source text: While this is not a problem in the proposed laparoscopy, the excretion route to the kidneys can be altered by conjugating positively charged moieties (—^+NMe3) or nonionic groups (e.g. PEG) to the free carboxylic acid group of cypate. […] In the unlikely event that the cyanine dyes are photo-unstable, they will be replaced with NIR pyrrolopyrrole cyanine dyes (PPCy), which are highly photostable and have exceptionally high fluorescence quantum yields (up to 80%).
# [6] = target: T1, albumin; assay: binding of carbocyanine dyes and LS838 to albumin (binding constant K)
# Source text: The hypothesis is that the binding of cypate to albumin facilitates the internalization of LS838 in PDAC/PanIN lesions. In a previous study, the binding of some carbocyanine dyes to albumin was compared. […] It was also shown that conjugation of peptides to the dyes decreases the K by a factor of ˜10. Using the same method, we determined the K value of LS838 to be 86,000 M^−1.
# [7] = system: pancreas tumor cells; conditions: in vivo
# [8] = system: PDAC; parameters: species or system mice; conditions: mouse, in vivo
# Source text: To overcome this problem, the use of peptides as a tumor-trapping mechanism was explored. The highly reducing environment of tumor cells is known to reduce disulfide bonds to thiols, which can trans-thiolate with cysteine-containing intracellular proteins to trap the molecular probe. Therefore, a variety of disulfide-containing peptides were conjugated to cypate and the compounds were screened in mice with advanced stage PDAC. […] Replacement of the D-Cysteine with the natural L-Cysteine residue abrogates this retention.
compound,measurement,setting,value
"CC1(C)C(/C=C/C=C/C=C/C=C2/N(CCC(=O)N[C@@H](Cc3ccc(O)cc3)C(=O)N[C@@H]3CSSC[C@@H](C(=O)N[C@@H](CCCCN)C(=O)O)NC(=O)[C@@H]4CCCN4C(=O)[C@H](CO)NC(=O)[C@H](CC(=O)O)NC(=O)[C@H](CCCNC(=N)N)NC(=O)CNC3=O)c3ccc4ccccc4c3C2(C)C)=[N+](CCC(=O)O)c2ccc3ccccc3c21 [LS747, Cypate-Tyr-Cyclo(DCys-Gly-Arg-Asp-Ser-Pro-Cys)-Lys-OH] (Cypate-Y[dC]GRDSPCK-OH; disulfide 2-8)",retention in tumors after in vivo administration,[1],rapid loss of retention in tumors
CC1(C)C(/C=C/C=C/C=C/C=C2/N(CCC(=O)O)c3ccc4ccccc4c3C2(C)C)=[N+](CCC(=O)[O-])c2ccc3ccccc3c21 [cypate],preferential uptake in PDAC relative to uninvolved pancreas,[2],not observed
same,binding constant (K) to albumin,[3],"556,000 M^−1"
same,efflux from tumor cells after transfer to new culture medium,[4],rapidly effluxes
Tyr-Cypate-Cyclo(DCys-Gly-Arg-Asp-Ser-Pro-Cys)-Lys-NH2 ({Tyr-Cypate′}-[dC]GRDSPCK-NH2; disulfide 1-7 (inferred)) [LS758],retention in tumors after in vivo administration,[1],rapid loss of retention in tumors
"CC1(C)C(/C=C/C=C/C=C/C=C2\N(CCCCS(=O)(=O)O)c3ccc4ccccc4c3C2(C)C)=[N+](CCCCS(=O)(=O)[O-])c2ccc3ccccc3c21 [ICG, indocyanine green]",binding constant (K) to albumin,[3],"554,000 M^−1"
"CC1(C)C(/C=C/C=C/C=C/C=C2/N(CCC(=O)N[C@@H]3CSSC[C@@H](C(=O)N[C@@H](Cc4ccc(O)cc4)C(=O)O)NC(=O)[C@@H]4CCCN4C(=O)[C@H](CO)NC(=O)[C@H](CC(=O)O)NC(=O)[C@H](CCCNC(=N)N)NC(=O)CNC3=O)c3ccc4ccccc4c3C2(C)C)=[N+](CCC(=O)O)c2ccc3ccccc3c21 [LS838, Cypate-Cyclo(DCys-Gly-Arg-Asp-Ser-Pro-Cys)-Tyr-OH] (Cypate-[dC]GRDSPCY-OH; disulfide 1-7)",clearance route,[5],clears through the liver
same,Kd,[6],11.6 µM
same,time remaining primarily in the tumor cells relative to non-tumor cells,[7],up to 100 h
same,time to internalization in the pancreas,[7],≤ 1 h
same,selective retention in tumors (duration),[8],over 48 h

# Source: patent US10806804B2, “Compounds having RD targeting motifs and methods of use thereof” (Washington University, priority 2015, dated 2020)
